Test results reported in patent US20100310561A1 (Boehringer Ingelheim, published 2010).
Where no end group is shown, it is not given here.

T1: human natriuretic peptide receptor A (NPRA) (human, UniProt P16066 33-1061)
T1 construct: whole, on cells; also called hNPRA; Human NPRA
T1 sequence (looked up): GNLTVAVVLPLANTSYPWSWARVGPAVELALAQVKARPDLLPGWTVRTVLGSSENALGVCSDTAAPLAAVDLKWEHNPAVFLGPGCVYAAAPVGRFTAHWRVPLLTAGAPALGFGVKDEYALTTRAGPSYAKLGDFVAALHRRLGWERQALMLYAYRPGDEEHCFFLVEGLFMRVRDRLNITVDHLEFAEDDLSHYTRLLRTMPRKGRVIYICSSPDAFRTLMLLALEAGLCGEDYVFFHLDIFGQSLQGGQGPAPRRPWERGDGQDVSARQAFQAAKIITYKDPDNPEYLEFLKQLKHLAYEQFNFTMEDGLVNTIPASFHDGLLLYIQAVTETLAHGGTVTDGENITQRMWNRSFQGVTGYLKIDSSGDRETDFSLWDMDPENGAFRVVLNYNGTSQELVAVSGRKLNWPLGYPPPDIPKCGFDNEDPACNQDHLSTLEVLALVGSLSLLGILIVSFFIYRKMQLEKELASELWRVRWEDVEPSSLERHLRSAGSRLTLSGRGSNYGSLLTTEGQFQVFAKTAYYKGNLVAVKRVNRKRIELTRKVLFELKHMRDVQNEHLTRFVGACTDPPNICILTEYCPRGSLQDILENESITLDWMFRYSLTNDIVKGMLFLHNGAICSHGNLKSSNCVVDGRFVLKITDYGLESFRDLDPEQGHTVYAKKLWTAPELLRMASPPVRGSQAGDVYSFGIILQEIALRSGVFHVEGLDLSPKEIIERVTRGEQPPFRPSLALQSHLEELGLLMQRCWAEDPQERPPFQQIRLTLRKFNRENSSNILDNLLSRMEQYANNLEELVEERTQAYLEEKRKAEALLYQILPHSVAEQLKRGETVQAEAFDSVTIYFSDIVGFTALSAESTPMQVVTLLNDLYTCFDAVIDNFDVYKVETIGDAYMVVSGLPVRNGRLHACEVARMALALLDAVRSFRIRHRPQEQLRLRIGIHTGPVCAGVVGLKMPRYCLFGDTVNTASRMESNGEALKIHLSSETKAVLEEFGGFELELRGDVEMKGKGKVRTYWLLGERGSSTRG

T2: rat NPRA (rat, UniProt P18910 29-1057)
T2 sequence (looked up): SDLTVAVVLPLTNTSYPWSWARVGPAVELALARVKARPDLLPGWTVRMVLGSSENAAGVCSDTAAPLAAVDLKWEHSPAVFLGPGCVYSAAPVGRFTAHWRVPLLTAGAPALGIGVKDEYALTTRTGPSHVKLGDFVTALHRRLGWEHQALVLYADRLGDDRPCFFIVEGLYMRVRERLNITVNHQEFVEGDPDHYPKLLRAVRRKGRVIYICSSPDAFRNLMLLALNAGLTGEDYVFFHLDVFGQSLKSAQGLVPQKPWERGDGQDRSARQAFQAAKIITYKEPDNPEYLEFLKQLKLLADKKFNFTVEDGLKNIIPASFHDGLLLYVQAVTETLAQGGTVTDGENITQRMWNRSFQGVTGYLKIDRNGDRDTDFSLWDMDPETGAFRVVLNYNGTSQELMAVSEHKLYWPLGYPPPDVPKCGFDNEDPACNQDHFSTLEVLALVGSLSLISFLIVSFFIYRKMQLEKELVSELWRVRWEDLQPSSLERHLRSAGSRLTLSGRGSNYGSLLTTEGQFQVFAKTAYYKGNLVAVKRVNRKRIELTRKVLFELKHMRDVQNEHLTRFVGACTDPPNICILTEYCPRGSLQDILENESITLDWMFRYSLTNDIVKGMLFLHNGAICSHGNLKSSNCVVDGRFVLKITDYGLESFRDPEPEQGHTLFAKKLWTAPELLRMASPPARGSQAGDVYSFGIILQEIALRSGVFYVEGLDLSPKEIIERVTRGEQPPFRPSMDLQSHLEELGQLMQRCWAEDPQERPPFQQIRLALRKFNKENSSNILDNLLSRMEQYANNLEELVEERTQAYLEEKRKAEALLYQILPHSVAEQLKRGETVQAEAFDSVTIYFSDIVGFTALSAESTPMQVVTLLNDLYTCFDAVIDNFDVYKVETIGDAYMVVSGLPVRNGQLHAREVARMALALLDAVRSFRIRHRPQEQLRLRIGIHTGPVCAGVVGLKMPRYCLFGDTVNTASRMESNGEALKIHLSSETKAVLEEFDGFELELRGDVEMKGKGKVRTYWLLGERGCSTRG

T3: canine NPRA (canine, UniProt A0A8I3MHU3 32-1060)
T3 sequence: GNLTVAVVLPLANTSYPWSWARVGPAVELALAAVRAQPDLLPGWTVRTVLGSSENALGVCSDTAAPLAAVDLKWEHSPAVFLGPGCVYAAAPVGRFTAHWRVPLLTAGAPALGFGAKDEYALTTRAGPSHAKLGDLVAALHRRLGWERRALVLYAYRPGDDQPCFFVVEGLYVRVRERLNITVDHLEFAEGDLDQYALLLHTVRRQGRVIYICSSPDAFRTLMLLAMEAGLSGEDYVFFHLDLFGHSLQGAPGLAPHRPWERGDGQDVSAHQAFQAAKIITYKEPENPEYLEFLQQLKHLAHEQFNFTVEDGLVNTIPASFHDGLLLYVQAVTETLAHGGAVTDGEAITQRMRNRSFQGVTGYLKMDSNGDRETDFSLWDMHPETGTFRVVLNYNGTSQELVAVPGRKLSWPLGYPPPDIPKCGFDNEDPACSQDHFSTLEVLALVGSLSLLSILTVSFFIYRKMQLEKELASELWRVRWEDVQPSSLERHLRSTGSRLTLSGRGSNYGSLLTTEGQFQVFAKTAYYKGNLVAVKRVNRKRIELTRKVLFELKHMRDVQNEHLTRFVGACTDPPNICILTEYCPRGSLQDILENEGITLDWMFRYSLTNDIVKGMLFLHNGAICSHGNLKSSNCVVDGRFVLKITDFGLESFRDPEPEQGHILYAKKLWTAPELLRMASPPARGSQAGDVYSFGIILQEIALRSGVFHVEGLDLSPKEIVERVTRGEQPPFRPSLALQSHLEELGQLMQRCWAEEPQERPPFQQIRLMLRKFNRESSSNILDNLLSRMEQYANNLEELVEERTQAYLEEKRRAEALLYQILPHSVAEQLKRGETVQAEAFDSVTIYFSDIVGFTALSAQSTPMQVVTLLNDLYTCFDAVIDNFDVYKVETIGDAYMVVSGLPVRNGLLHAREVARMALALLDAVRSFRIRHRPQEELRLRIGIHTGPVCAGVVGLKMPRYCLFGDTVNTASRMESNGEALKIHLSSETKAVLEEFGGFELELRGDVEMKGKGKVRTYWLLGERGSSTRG


Assays:
[1] = target: T1, human natriuretic peptide receptor A …; experiment: competition with 125I-labeled ANP on human NPRA transfected HEK293 cells; Ki=IC50/[1+([L]/Kd)]
Experimental: Plates were washed with ice cold buffer by vacuum filtration and allowed to dry. Scintillant was added and the plates were counted on a TopCount Scintillation counter.
(§1) Plates were washed using vacuum filtration and allowed to dry. Scintillant was added and the plates were counted on a TopCount Scintillation counter. Curves were fit using XLfit4.2 and IC₅₀ values (Table 8) were determined using the Dose Response One Site Model 205, [4 parameter fit: y=A+((B-A)/(1+((C/x)̂D)))].

[2] = target: T2, rat NPRA; experiment: cell-based or functional assay
[3] = target: monkey NPRA (monkey); experiment: cell-based or functional assay
[4] = target: T3, canine NPRA; experiment: cell-based or functional assay
[5] = target: T1, human natriuretic peptide receptor A …; experiment: cell-based or functional assay
[6] = target: T1, human natriuretic peptide receptor A …; experiment: competition with 125I-labeled ANP on human NPRA transfected HEK293 cells
Experimental: as §1

[7] = target: T1, human natriuretic peptide receptor A …; experiment: competition with 125I-labeled ANP on human NPRA transfected HEK293 cells; relative to Construct 1
Experimental: as §1

[8] = target: T3, canine NPRA; experiment: cell-based or functional assay; remark: listed apart in the source

Binder | Ki [1] | cGMP EC50 (nM) Rat NPRA [2] | cGMP EC50 (nM) Monkey NPRA [3] | cGMP EC50 (nM) Dog NPRA [4] | cGMP EC50 (nM) Human NPRA [5] | IC50 [6] | Relative Affinity [7] | Mean EC50 nM, cGMP-caNPRA 293 [8]
Construct 4, ANPXY-L4-Fc2AB (recombinant) (Fc fusion, also called ANP28-11aa-hFc2) SLRRSSCFGGRMDRIGAQSGLGCNSFRYGGSGGSGGSGGCPPCPAPPVAGPSVFLFPPKPKDTLMISRTPEVTCVVVDVSHEDPEVQFNWYVDGVEVHNAKTKPREEQFNSTFRVVSVLTVVHQDWLNGKEYKCKVSNKGLPAPIEKTISKTKGQPREPQVYTLPPSREEMTKNQVSLTCLVKGFYPSDIAVEWESNGQPENNYKTTPPMLDSDGSFFLYSKLTVDKSRWQQGNVFSCSVMHEALHNHYTQKSLSLSPGK | 12.3 nM | 57 nM | 18 nM | 46 nM | 27 nM | 29.3 nM | 4 | –
Construct 5, ANPXY-L6-Fc2AB (recombinant) (Fc fusion, also called ANP28-20aa-hFc2) SLRRSSCFGGRMDRIGAQSGLGCNSFRYGGSGGSGGSGGSGGSGGSGGCPPCPAPPVAGPSVFLFPPKPKDTLMISRTPEVTCVVVDVSHEDPEVQFNWYVDGVEVHNAKTKPREEQFNSTFRVVSVLTVVHQDWLNGKEYKCKVSNKGLPAPIEKTISKTKGQPREPQVYTLPPSREEMTKNQVSLTCLVKGFYPSDIAVEWESNGQPENNYKTTPPMLDSDGSFFLYSKLTVDKSRWQQGNVFSCSVMHEALHNHYTQKSLSLSPGK | 2 nM | 12 nM | 5 nM | 6 nM | 6 nM | 4.3 nM | 1 | –
SLRRSSCFGGRMDRIGAQSGLGCNSFRY (ends and bridges not checked; also: also used 125I-labelled as radioligand) [human ANP28 peptide (hANP28)] | – | – | 0.5 nM | 1.3 nM | – | – | – | 1.34 nM
